Measured values: the supplement of paper PMC10065799, “High-throughput profiling of sequence recognition by tyrosine kinases and SH2 domains using bacterial peptide display” (eLife, 2023)

Tests used:
SHP2-C SH2 = assay: SH2 binding enrichment of the phosphorylated peptide, bacterial display (enrichment ratio); higher = better substrate or ligand; peptides without Tyr show the background
c-Src SH2 = assay: as above
Grb2 SH2 = Grb2 SH2 (UniProt P62993); assay: as above
MERTK = MERTK (UniProt Q12866); assay: phosphorylation enrichment, bacterial display (enrichment ratio); higher = better substrate or ligand; peptides without Tyr show the background
AncSZ = assay: as above
Fyn = Fyn (UniProt P06241); assay: as above
Fyn, sequence (P06241 whole entry, looked up): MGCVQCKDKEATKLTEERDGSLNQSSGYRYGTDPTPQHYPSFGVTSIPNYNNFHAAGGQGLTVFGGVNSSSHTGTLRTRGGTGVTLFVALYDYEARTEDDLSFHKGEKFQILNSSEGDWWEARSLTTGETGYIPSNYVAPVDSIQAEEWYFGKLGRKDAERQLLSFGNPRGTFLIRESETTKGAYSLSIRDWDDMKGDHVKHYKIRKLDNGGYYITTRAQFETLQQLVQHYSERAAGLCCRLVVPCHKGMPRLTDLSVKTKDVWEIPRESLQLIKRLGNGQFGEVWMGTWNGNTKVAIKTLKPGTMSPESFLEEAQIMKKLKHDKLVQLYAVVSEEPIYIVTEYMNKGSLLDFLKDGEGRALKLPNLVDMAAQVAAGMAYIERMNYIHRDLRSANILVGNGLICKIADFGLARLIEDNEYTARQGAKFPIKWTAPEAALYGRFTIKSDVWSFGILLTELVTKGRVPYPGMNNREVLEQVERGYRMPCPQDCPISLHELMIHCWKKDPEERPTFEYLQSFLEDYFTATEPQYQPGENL

Fer (mouse) = assay: as above
c-Src = assay: as above
EPHB2 = EPHB2 (UniProt P29323); assay: as above
EPHB2, sequence (P29323 whole entry, looked up): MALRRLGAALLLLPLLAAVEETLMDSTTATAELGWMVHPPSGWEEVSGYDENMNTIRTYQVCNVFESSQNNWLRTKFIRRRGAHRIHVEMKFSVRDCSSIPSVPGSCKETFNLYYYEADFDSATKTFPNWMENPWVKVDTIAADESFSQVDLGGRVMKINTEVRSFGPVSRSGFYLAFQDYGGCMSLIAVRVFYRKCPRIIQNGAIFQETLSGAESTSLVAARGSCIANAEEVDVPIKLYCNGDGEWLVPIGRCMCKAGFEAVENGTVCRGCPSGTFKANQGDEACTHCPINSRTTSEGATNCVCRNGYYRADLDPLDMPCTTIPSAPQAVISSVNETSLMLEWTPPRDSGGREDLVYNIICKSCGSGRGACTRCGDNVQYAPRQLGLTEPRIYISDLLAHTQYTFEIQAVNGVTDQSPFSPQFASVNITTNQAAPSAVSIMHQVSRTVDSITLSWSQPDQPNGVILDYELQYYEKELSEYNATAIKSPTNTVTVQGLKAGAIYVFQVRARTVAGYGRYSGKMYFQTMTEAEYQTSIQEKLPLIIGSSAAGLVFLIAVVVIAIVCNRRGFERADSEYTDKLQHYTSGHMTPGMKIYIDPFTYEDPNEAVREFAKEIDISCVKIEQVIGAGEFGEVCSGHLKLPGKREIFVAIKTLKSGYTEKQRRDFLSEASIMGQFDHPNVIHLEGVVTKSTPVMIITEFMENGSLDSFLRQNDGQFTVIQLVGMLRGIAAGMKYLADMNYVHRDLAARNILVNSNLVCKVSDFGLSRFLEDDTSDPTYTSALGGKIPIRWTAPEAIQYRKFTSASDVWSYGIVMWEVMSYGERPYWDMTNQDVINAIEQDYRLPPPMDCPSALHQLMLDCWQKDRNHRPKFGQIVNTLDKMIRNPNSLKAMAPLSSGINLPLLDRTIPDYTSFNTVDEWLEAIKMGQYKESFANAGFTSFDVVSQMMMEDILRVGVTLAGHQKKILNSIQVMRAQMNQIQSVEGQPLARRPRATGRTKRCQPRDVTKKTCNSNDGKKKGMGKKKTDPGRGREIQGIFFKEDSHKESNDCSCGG

Hck = Hck (UniProt P08631); assay: as above
Hck, sequence (P08631 whole entry, looked up): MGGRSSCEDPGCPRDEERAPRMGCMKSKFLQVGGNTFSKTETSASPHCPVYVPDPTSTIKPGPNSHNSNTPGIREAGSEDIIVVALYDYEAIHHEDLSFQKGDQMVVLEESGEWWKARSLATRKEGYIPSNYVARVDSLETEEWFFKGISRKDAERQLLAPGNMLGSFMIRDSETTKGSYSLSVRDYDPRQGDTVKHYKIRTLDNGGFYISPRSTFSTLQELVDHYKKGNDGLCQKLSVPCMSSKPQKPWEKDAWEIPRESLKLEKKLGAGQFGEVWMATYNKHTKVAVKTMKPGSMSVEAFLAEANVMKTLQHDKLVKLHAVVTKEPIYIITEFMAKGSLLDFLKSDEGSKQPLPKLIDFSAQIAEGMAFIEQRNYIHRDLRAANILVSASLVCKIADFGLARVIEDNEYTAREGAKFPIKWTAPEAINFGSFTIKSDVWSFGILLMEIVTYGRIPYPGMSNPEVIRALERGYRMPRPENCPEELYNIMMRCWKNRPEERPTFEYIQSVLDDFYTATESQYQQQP

EPHB1 = EPHB1 (UniProt P54762); assay: as above
Fes = Fes (UniProt P07332); assay: as above
FGFR3 = FGFR3 (UniProt P22607); assay: as above
FGFR3, sequence (P22607 whole entry, looked up): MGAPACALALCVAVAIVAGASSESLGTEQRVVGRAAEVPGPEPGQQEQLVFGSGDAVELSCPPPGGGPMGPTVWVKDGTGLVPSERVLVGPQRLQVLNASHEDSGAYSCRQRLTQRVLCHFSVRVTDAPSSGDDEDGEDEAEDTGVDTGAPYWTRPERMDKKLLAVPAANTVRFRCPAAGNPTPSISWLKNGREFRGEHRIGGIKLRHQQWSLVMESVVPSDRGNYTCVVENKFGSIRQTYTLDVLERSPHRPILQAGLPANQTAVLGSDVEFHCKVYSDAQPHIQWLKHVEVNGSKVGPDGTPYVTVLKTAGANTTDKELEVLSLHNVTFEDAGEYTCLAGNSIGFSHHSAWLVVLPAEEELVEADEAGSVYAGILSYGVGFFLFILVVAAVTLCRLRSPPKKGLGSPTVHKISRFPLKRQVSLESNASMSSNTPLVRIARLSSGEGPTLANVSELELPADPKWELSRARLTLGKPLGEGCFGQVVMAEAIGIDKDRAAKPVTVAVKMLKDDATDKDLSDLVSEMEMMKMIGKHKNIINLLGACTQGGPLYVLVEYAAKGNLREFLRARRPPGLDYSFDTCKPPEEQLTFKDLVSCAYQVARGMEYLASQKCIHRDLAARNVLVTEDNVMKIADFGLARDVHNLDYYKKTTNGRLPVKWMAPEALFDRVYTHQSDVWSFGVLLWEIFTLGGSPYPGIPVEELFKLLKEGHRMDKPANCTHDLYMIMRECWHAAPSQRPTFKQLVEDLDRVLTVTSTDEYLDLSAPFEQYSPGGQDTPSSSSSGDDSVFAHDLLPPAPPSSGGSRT

Jak2 = Jak2 (UniProt O60674); assay: as above
Jak2, sequence (O60674 whole entry, looked up): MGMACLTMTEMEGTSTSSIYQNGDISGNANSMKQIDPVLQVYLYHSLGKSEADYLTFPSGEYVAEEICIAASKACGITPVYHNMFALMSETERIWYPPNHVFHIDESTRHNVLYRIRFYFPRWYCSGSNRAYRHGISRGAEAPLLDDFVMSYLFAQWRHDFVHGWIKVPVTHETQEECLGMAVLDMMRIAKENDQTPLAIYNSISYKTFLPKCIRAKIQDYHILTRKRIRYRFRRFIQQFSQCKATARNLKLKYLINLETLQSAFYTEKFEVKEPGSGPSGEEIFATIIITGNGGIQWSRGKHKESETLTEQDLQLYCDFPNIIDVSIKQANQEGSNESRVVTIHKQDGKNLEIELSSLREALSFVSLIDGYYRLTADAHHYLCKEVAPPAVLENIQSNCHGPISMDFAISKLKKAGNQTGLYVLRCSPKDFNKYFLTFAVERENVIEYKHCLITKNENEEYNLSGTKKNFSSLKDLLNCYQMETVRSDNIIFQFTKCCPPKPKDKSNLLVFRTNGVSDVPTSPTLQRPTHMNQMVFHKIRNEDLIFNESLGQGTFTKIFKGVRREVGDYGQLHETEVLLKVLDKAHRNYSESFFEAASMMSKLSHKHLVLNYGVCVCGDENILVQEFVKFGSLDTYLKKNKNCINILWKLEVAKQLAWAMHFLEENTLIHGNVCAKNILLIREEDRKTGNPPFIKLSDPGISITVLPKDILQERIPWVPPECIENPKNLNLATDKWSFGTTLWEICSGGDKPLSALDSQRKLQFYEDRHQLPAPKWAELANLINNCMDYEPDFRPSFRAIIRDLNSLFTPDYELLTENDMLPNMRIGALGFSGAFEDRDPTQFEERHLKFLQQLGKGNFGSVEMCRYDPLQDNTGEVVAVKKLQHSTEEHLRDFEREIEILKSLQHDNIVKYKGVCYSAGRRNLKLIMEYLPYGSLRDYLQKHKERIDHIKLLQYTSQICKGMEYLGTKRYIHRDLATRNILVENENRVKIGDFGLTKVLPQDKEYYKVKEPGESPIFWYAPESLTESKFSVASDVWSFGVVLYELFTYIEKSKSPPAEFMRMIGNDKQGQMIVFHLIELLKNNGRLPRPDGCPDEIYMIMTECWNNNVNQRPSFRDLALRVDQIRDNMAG

FGFR1 = FGFR1 (UniProt P11362); assay: as above
c-Abl (mouse) = assay: as above
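Throughout, for SH2 binding enrichment of the phosphorylated peptide, bacterial display: peptide library displayed on the E. coli surface as eCPX fusions, selected cells deep-sequenced, score is each peptide's frequency after selection divided by its frequency in the input.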
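Throughout, for phosphorylation enrichment, bacterial display: 11-residue human phosphosite peptides and single-mutation variants displayed on the E. coli surface, counted by deep sequencing, each peptide's frequency after selection divided by its frequency in the unselected input library; frequency after pTyr selection over input frequency; kinase dosed for 20-30% of maximal phosphorylation in three min.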

Grb2 SH2, sequence (P62993 whole entry, looked up): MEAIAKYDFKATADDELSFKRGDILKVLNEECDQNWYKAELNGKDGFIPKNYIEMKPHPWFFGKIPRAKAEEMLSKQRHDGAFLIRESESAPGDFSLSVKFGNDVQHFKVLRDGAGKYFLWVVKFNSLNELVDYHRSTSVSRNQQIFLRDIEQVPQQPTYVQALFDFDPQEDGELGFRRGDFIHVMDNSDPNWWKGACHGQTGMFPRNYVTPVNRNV

Row | Sequence | SH2 binding enrichment (SHP2-C SH2) | SH2 binding enrichment (c-Src SH2) | SH2 binding enrichment (Grb2 SH2) | phosphorylation enrichment (MERTK) | phosphorylation enrichment (AncSZ) | phosphorylation enrichment (Fyn) | phosphorylation enrichment (Fer (mouse)) | phosphorylation enrichment (c-Src) | phosphorylation enrichment (EPHB2) | phosphorylation enrichment (Hck) | phosphorylation enrichment (EPHB1) | phosphorylation enrichment (Fes) | phosphorylation enrichment (FGFR3) | phosphorylation enrichment (Jak2) | phosphorylation enrichment (FGFR1) | phosphorylation enrichment (c-Abl (mouse))
1 | PSQRHYVFFFS [PTEN_Y174_R173H_YF] | 1.16 | 0.896 | 1.25 | 0.892 | 2.04 | 0.757 | 0.535 | 0.787 | 0.763 | 0.712 | 0.926 | 2.72 | 1.2 | 1.92 | 0.759 | 1.22
2 | PSQRHYVYYYS [PTEN_Y174_R173H] | 3.14 | 2.03 | 1.2 | 12.6 | 1.71 | 2.84 | 1.65 | 4.77 | 0.953 | 2.13 | 1.72 | 1.63 | 6.63 | 4.48 | 9.38 | 1.28
3 | PSQRPYVYYYS [PTEN_Y174_R173P] | 2.81 | 3.29 | 1.61 | 7.73 | 1.44 | 1.43 | 0.64 | 2.78 | 0.676 | 1.02 | 0.652 | 1.09 | 3.08 | 2.58 | 4.69 | 1
4 | PSQRRNVYYYS [PTEN_Y174_Y174N] | 0.828 | 1.25 | 0.923 | 4.42 | 0.567 | 0.837 | 0.568 | 0.9 | 0.657 | 0.74 | 0.397 | 0.838 | 1.41 | 0.916 | 1.36 | 0.47
5 | PSQRRYVFFFS [PTEN_Y174_YF] | 1.64 | 0.819 | 1.3 | 0.691 | 1.54 | 0.721 | 0.735 | 0.6 | 0.655 | 0.476 | 0.809 | 1.77 | 1.24 | 1.16 | 0.731 | 1.27
6 | PTFKHYANSTQ [SLC12A3_Y70_E68K_YF] | 0.499 | 0.335 | 0.671 | 0.375 | 0.651 | 0.482 | 0.509 | 0.365 | 0.506 | 0.507 | 0.603 | 0.774 | 0.599 | 0.455 | 0.574 | 0.591
7 | PTTKTYFPHFF [HBA1_Y43_D48Y_YF] | 1.01 | 0.683 | 1.23 | 0.607 | 0.681 | 0.723 | 0.864 | 0.471 | 0.716 | 0.672 | 0.547 | 0.584 | 0.696 | 0.569 | 0.824 | 0.453
8 | PVDTFYDSTRG [DYNC2H1_Y2231_M2227V_YF] | 0.652 | 0.503 | 0.661 | 0.404 | 0.973 | 0.671 | 0.917 | 0.671 | 0.551 | 0.888 | 0.638 | 0.95 | 0.722 | 0.939 | 0.423 | 1.04
9 | PVGVLYKVKVY [PTS_Y128] | 0.584 | 0.398 | 0.73 | 0.669 | 1.28 | 0.652 | 0.699 | 0.451 | 0.877 | 0.687 | 1.06 | 1.79 | 1.27 | 1.52 | 0.337 | 0.914
10 | PVKSEYPSIKL [NPC2_Y119] | 0.592 | 0.68 | 0.752 | 0.465 | 0.456 | 0.509 | 0.433 | 0.364 | 0.562 | 0.515 | 0.358 | 0.822 | 0.623 | 0.557 | 0.579 | 0.654
11 | PVQAPYQKVVA [HBB_Y131_A130P] | 1.3 | 0.561 | 0.8 | 0.691 | 0.744 | 0.539 | 0.381 | 0.563 | 0.691 | 0.687 | 0.543 | 0.94 | 0.429 | 0.687 | 0.436 | 0.732
12 | QDLLLYQTHSE [PKHD1_Y255_F253L] | 0.681 | 0.394 | 0.726 | 0.745 | 1.86 | 1.16 | 1.81 | 1.77 | 1.94 | 1.48 | 1.27 | 1.54 | 1.28 | 1.61 | 0.713 | 0.888
13 | QDLTDYLMKIL [ACTA2_Y190_R185Q] | 1.23 | 0.861 | 1.33 | 0.809 | 1.01 | 0.657 | 0.558 | 0.546 | 0.772 | 0.916 | 0.523 | 1.55 | 0.698 | 1.34 | 0.807 | 1.13
14 | QEEPEYWDQET [HLA-A_Y83_G80E] | 0.476 | 0.491 | 0.798 | 0.384 | 2.08 | 0.943 | 0.902 | 0.823 | 0.793 | 0.699 | 1.08 | 1.95 | 1.43 | 2 | 0.897 | 0.907
15 | QEGPEYWDGNT [HLA-B_Y83_R86G] | 0.653 | 0.367 | 0.908 | 0.709 | 1.93 | 0.548 | 0.533 | 0.854 | 0.959 | 0.833 | 0.762 | 1.97 | 1.56 | 1.98 | 1.11 | 1.08
16 | QEGPEYWDQET [HLA-A_Y83] | 0.354 | 0.588 | 0.819 | 0.66 | 1.82 | 0.739 | 0.546 | 0.825 | 0.533 | 0.73 | 0.809 | 1.79 | 1.16 | 1.94 | 0.816 | 0.907
17 | QFKGKYLAKHN [CASK_Y712_D710G_YF] | 1.16 | 1.16 | 1.29 | 0.632 | 1.2 | 0.415 | 0.441 | 0.404 | 0.527 | 0.376 | 0.49 | 0.616 | 0.327 | 0.855 | 0.498 | 0.467

Row | Sequence | SH2 binding enrichment (SHP2-C SH2) | SH2 binding enrichment (c-Src SH2) | SH2 binding enrichment (Grb2 SH2) | phosphorylation enrichment (MERTK) | phosphorylation enrichment (AncSZ) | phosphorylation enrichment (Fyn) | phosphorylation enrichment (Fer (mouse)) | phosphorylation enrichment (c-Src) | phosphorylation enrichment (EPHB2) | phosphorylation enrichment (Hck) | phosphorylation enrichment (EPHB1) | phosphorylation enrichment (Fes) | phosphorylation enrichment (FGFR3) | phosphorylation enrichment (Jak2) | phosphorylation enrichment (FGFR1) | phosphorylation enrichment (c-Abl (mouse))
18 | QFQEKYKQVEQ [HCN4_Y531_YF] | 0.876 | 0.603 | 0.624 | 0.559 | 1.27 | 0.564 | 0.63 | 0.679 | 0.95 | 0.882 | 0.663 | 1.29 | 0.706 | 2.09 | 0.699 | 0.913
19 | QGIIIYKAAFF [SLC25A4_Y187_R188K_YF] | 0.446 | 0.373 | 1.36 | 0.439 | 1.5 | 0.569 | 0.721 | 0.917 | 0.723 | 0.526 | 1.21 | 1.36 | 0.852 | 1.05 | 0.798 | 1.1
20 | QKNVSYVSTVS [TASOR_Y1043] | 0.891 | 0.26 | 0.679 | 0.509 | 0.815 | 0.532 | 0.403 | 0.335 | 1.75 | 0.47 | 0.285 | 0.514 | 0.506 | 0.401 | 0.405 | 0.38
21 | QLPRGYISIPV [BAG3_Y205] | 0.993 | 0.887 | 0.736 | 0.612 | 0.789 | 0.839 | 0.642 | 0.592 | 0.722 | 0.718 | 0.698 | 0.974 | 0.744 | 0.881 | 0.482 | 0.867
22 | QLQVFYATRDQ [MIPEP_Y579_L582R] | 1.25 | 0.659 | 0.904 | 0.567 | 1.27 | 0.881 | 0.59 | 0.977 | 0.805 | 1.14 | 0.787 | 1.71 | 1 | 1.96 | 0.86 | 1.2
23 | QMVGMYASFFM [AVPR2_Y124_S127F_YF] | 0.782 | 0.602 | 0.642 | 5.38 | 1.88 | 9.8 | 5.31 | 8.13 | 2.27 | 5.82 | 3.06 | 2.03 | 1.5 | 2.03 | 0.676 | 4.72
24 | QNTGDDFDLFG [PTPN11_Y62_Y62D_YF] | 0.442 | 0.402 | 0.768 | 0.634 | 1.7 | 0.54 | 0.7 | 0.689 | 1.02 | 0.748 | 0.599 | 1.75 | 1.1 | 1.6 | 0.936 | 1.11
25 | QNTVDYYDLYG [PTPN11_Y62_G60V] | 0.502 | 0.816 | 0.892 | 1.33 | 2.72 | 6.01 | 1.1 | 5.35 | 3.38 | 6.03 | 4.44 | 1.66 | 15.4 | 2.63 | 18.4 | 1.38
26 | QQLQGYVPSNF [FRK_Y99_I100V_YF] | 0.64 | 0.659 | 1.03 | 0.75 | 0.699 | 0.479 | 0.584 | 0.904 | 0.664 | 0.802 | 0.653 | 1.07 | 0.779 | 1.52 | 0.475 | 1.13
27 | QRAADYFSQQM [GBP6_Y333_YF] | 0.353 | 0.338 | 0.789 | 0.352 | 1 | 0.546 | 0.491 | 0.687 | 0.57 | 0.488 | 0.469 | 0.921 | 0.634 | 0.698 | 0.558 | 0.586
28 | QRALLYEDALY [UNC13D_Y56] | 0.542 | 0.843 | 0.825 | 5.12 | 2.17 | 7.7 | 17.1 | 6.09 | 12.3 | 7.73 | 12.3 | 2.05 | 0.975 | 1.08 | 0.861 | 1.04
29 | QSSALYEDCYL [ASS1_Y83_R86C] | 0.514 | 0.86 | 0.863 | 3.43 | 1.82 | 3 | 16.9 | 3.61 | 7.55 | 1.84 | 12.4 | 2.95 | 1.02 | 1.5 | 0.788 | 1.35
30 | QTEAEYRFIFM [PTPN11_Y511_Q510E_YF] | 0.39 | 0.364 | 0.643 | 0.618 | 1.29 | 0.511 | 0.847 | 0.525 | 0.762 | 0.626 | 0.59 | 1.32 | 1.42 | 1.24 | 1.46 | 0.912
31 | QTEAEYRFIYM [PTPN11_Y511_Q510E] | 0.553 | 0.423 | 0.7 | 0.641 | 1.55 | 0.828 | 1.11 | 0.878 | 0.65 | 0.886 | 1.09 | 1.86 | 3.09 | 1.51 | 4.4 | 1.26
32 | QTEAQYRFIYM [PTPN11_Y511] | 0.744 | 0.244 | 0.563 | 0.667 | 1.77 | 0.634 | 1.09 | 1.23 | 0.782 | 0.542 | 0.835 | 1.29 | 1.54 | 1.56 | 1.65 | 1.5
33 | QTLTDYDIRFY [CSNK2A1_Y131] | 0.775 | 0.548 | 0.795 | 0.484 | 1.27 | 0.552 | 0.586 | 0.603 | 0.72 | 0.526 | 0.825 | 1.27 | 0.84 | 1.18 | 0.62 | 0.913
